Source: US20070287629A1 (MAX PLANCK GESELLSCHAFT ZUR FOERDERUNG DER WISSENSCHAFTEN E …, published 2007)

B1: Tobacco 14-3-3c (Gene bank AAC49892, amino acids 1-260 with an N-terminal His-tag) (other)
chain: MAVAPTAREENVYMAKLAEQAERYEEMVEFMEKVSNSLGSEELTVEERNLLSVAYKNVIGARRASWRIISSIEQKEESRGNEEHVNSIREYRSKIENELSKICDGILKLLDAKLIPSAASGDSKVFYLKMKGDYHRYLAEFKTGAERKEAAESTLTAYKAAQDIATTELAPTHPIRLGLALNFSVFYYEILNSPDRACNLAKQAFDEAIAELDTLGEESYKDSTLIMQLLRDNLTLWTSDMQDDGADEIKEDPKPDEAKN
notes: Expressed in E. coli; one monomer in the asymmetric unit; also called plant 14-3-3c; Nicotiana tabacum 14-3-3 isoform c; not shown: N-terminal His-tag

Tests used:
[1] = target: Tobacco 14-3-3c (Gene bank AAC49892, amino acids 1-260 with an N-terminal His-tag) (Nicotiana tabacum (tobacco)) (UniProt P93343); test: isothermal titration calorimetry, peptide titrated into 14-3-3c alone, 35 °C
[2] = target: 14-3-3-FC complex (tobacco 14-3-3c saturated with fusicoccin) (Nicotiana tabacum (tobacco)) (UniProt P93343); test: isothermal titration calorimetry, […]
[3] = target: 14-3-3-FC complex (tobacco 14-3-3c saturated with fusicoccin) (Nicotiana tabacum (tobacco)) (UniProt P93343)
[4] = target: Tobacco 14-3-3c (Gene bank AAC49892, amino acids 1-260 with an N-terminal His-tag) (Nicotiana tabacum (tobacco)) (UniProt P93343); test: ITC; peptide into unliganded 14-3-3c
[5] = target: 14-3-3-FC complex (tobacco 14-3-3c saturated with fusicoccin) (Nicotiana tabacum (tobacco)) (UniProt P93343); test: ITC; peptide into the 14-3-3-FC complex
[6] = target: Tobacco 14-3-3c (Gene bank AAC49892, amino acids 1-260 with an N-terminal His-tag) (Nicotiana tabacum (tobacco)) (UniProt P93343); test: ITC; phosphopeptide (0.5 mM) titrated into 14-3-3c (0.05 mM), 25 mM HEPES pH 6.5, 35 °C, single-site fit; peptide to unliganded 14-3-3c, no fusicoccin; ITC, pH 6.5, 35 C
[7] = target: the molecule itself; test: X-ray crystal structure (homodimer)
Procedure: Tobacco 14-3-3c (Gene bank AAC49892, amino acids 1-260 with an N-terminal His-tag) was expressed recombinantly in E.coli and purified via standard procedures. Fusicoccin was purchased from Sigma. Phosphopeptides were synthesized by Biosyntan (Berlin). […] They were soaked with ligands for 4 hours (fusicoccin) or 20 minutes (peptide) in precipitant solution supplemented to 30% PEG 400 and cryoprotectant (precipitant solution supplemented to 35% PEG 400, 8% Isopropanol) prior to freezing in liquid N₂.

Molecule | ΔG [1] [kcal/mol] | Kd [2] [nM] | ΔG [2] [kcal/mol] | fold increase of binding affinity by fusicoccin [3] [fold] | -TΔS [4] [kcal/mol] | ΔH [4] [kcal/mol] | -TΔS [5] [kcal/mol] | ΔH [5] [kcal/mol] | Kd [6] [nM] | binding result [7]
phosphopeptide Gln-Ser-Tyr-pThr-Val (QSYpTV), C-terminal end of PMA2, a H+-ATPase isoform from N. plumbaginifolia | -8.3 | 27 | -11.4 | 93 | 1.7 | -10 | 0.4 | -11.8 | 2500 | 
B1 |  |  |  |  |  |  |  |  |  | binds
